Results as given in patent US20220153819A1.

Biological target: human GITR on Jurkat/hGITR/hCD20 cells (human) (UniProt Q9Y5U5)
Experiment: flow cytometry on Jurkat/hGITR/hCD20 cells

Chain of human GITR on Jurkat/hGITR/hCD20 cells (human) (Q9Y5U5 26-241): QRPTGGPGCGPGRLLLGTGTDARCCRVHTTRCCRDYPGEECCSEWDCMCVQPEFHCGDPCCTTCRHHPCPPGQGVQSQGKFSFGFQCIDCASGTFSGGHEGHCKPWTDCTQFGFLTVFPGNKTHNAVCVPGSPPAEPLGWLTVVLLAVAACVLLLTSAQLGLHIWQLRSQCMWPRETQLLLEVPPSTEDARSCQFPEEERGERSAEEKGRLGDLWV

REGN1932, IgG1 isotype control antibody
Maximum MFI: 39900 MFI
